Measurements published in the nanobody polyreactivity screen of Harvey et al. (2022).

assay: yeast display, Sf9 membrane polyspecificity reagent, FACS + sequencing; frameworks hold sequencing errors
Summary of the method: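 Synthetic nanobody libraries on Saccharomyces cerevisiae BJ5465 were galactose-induced for 36–48 hours, stained 1 hour at 4 °C with 10% biotinylated, detergent-solubilized Sf9 membrane reagent and enriched on streptavidin microbeads. FACS then separated cells into low and high (top ~1%) gates by anti-HA (expression) and streptavidin (reagent binding) fluorescence. Genes were colony-PCR amplified, MiSeq 2 × 250 sequenced and CDR-length filtered. A clone's polyreactivity label is that of its gate of origin.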

Row | Sequence | polyreactivity (PSR sort gate)
1 | QVQLVESGGGLVQAGGSLRLSCAAYGFILDFYTMGWYRQAPGKERELVAAITNGGSTYYADSVKGRFTISRDNAKNTVYLQMNSLKPEDTAVYYCAAYYRSRHNGYDSWGQGTQVTVSS | low polyreactivity
2 | PVQLVESGGGLVQAGGSLRLSCAASGNAMGWYRQAPGKERELVASINRSGGRTYYADSVKGRFTISRDNAKNTVYLQMNSLKPEDTAVYYCAARPHYDSDYWGQGTQVTVSS | low polyreactivity
3 | QVHLVESGGGLVQAGGSLRLSCAASGRTFPSNVMGWYRQAPGKERELVAGITWRGASTYYADSVKGRFTISRDNAKNTVYLQMNSLKPEDTAVYYCAVRTQYRRYEYWGQGTKVTVSS | high polyreactivity
4 | QVQLVESGGGLVQAGGSLRLSCAASGSIFGLYAMGWYRQAPGKETELVAAINWNGGDTYYADSVKGRFTISRDNAKNPVYLQMNSLKPEDTAVYYCAAEQYRYGIRRRHYDYWGQGTQVTVSS | low polyreactivity
5 | QVQLVESGGGLVQAGGSLRLSCAASGSIFSSYAMGWSRQAPGKEREFVAAISTGGRTYYADSVKGRFTISRDNAKNTVYLQMNSLKPEDTAVYYCAADGPLPHKVGTHTLDYWGQGTQVTVSS | low polyreactivity
6 | QVQLVESGGGLVQAGGSLRLICAASRSIFEINAMGWYSQAPGKERELVADNRRGDSTNYADSVNGRFTISRDNAKNTVYLQMNSLKPEVTAVYYCAARWRRSIYGVYPQRPYDYWGQGTQVTVSS | high polyreactivity
7 | QVQLVESGGGLVQAGGSLRLSCAASGRIFVPNAMGWYRQAPGKERELVAAITRSGSTYYADSVKGRFTISRDNAKNTVYLQMNSLKPEDTAVYYCNAASRRFPGKVWDYHYWGQGTQVTVSS | low polyreactivity
8 | QVQLVESGGGLVQAGGSLRLSCAASGLTFTGYAMGWYRQAPGKERELVAAISSRGGSTYYADSVKGRFTISRDTAKNTVYLQMNRLKPEDTAVYYCNAVVVVGRRDYWGQGTQVTVSS | high polyreactivity
9 | QVQLVESGGGLFQAGGSLRLSCAASGRTIYLNAMGWYRQAPLKERELVAAITSSGGRTYYADSVKGRFTISRDNAKNSVYLQMNSLKPEDTAVYYCAAVVSSKPSFYWGQGSQVTVSS | low polyreactivity
10 | QVQLVESGGGLVQAGGSLRLTCAASGRICSNYAMGWYRPARGKERELLAAITVIGGRTYYADSVKGRFTISRDNPKNTVYLHMNSPKPEDTAVYYCAATPRRPWFYGSDYWGQGTQVTVSS | high polyreactivity
11 | QVQLVESGGGLVQAGGSLRLSCAASGFIFAGYAMGWYRQAPGKERELVAGITRNGGSTYYADSVKGRFTISRDNAKITVYFQMYSLNPEDTAVYYCAATRYSFGPRRVDYWRQGTQVTVSS | high polyreactivity
12 | QVQLVESGGGLVQAGGSLRLSCAASGRTLYYKAMGWYRQAPGKERELVAAISRSGGSTYYADSVKGRFTISRDNAKNTVYLQMNSLKPEDTAVYYCAVLPSYTSWESSDYWGQGTQVTVSS | high polyreactivity
13 | QVQLVESGGGLVQAGGSLRVSCAASGSTFTNYAMGVYRQAPRKERELIARITYNVGRTYYADSVKGRFTISRDNAKNTVYLQMNSLKPEDTAVYYCAAGVGWRYRVRWYYYLGDYWGQVTQVTVSS | high polyreactivity
14 | QVQLVESGGGLVQAGGSLRLSCAASGNIFTTYAMGWYRQAPGKERELVAAISRTGGRTSYADSVKGRFTISRDNAKNTVYLQMNSLKPEDTAVYYCAAVPTVRPSAPRARILSDYWGQGTQVTVSS | high polyreactivity
15 | QVQLVESGGGLVQAGGSLRLSCAASGSIFPFYAMGWYRQAPGKEREMLAANSDRGGSTYYADSVKGRFTISRDNAKNTVYLQMNSLKPEDTAVYYCNADRARFTYRATTYTGRYDYWGQGTQVTVSS | low polyreactivity
16 | QVQLVESGGGLVQAGGSLRLSCAASGFTFWRYAMGWYRQAPGKERELVAAISRNGGRTYYADSVKGRFTISRDNAKNTVYLQMNSLKPEDTAVYYCAADSDIEYEYWGQGTQVTVSS | high polyreactivity
17 | QVQLVESGAVLVQAGGSIRLSCAASGSSFPYYAMGWYRQAPVKERELVATISQDGGRTYADSVKGRFTISRDNAKNTVYLQMNSLKPEDTAVDYCAADYSVNYDFGYWGQGTQVTVSS | low polyreactivity
18 | QVQLVESGGGLVQAGGSLRLSCAASGFIFAGTAMGWYRQAPGKEWELVAAITRSGTNTYYADSVKGRFTISRDHAKNTVFLQMNSLKPEDTAVYYCNATVRYRYPYGYWGQGTQVTVSS | high polyreactivity
19 | QVKLQESGGGLVQAGGSLRLSCAASGYISHADEMGWYRQAPGKEHELVASISNGGSTNYADSVKGRFTISRDNAKNTVYLQMNSLKWEDTAVYYWAAWTGQVDIHYYWGQGTQVTVSS | low polyreactivity
20 | QVQLVESGGGLVQAGGSLRLSCAASGRTFFPYAMGWYRQAPGKERELVAAITRGGSTNYADSVKGRFTISRDNAKNTVYLQINSLKPEDTAVSYCATVVRYSNARGDYWGQGTQVTVSS | low polyreactivity
21 | QVQLVESGGGLVEAGGSLRLSCAASGRTFFSNAMVWYRQAPGKERELVAAINRGGSTYYADSVKGRFTSSRDNAKNTVNLQMNSLKPEDTAVYYCAAGYWSKNSIHYYYWGQGTQVTVSS | high polyreactivity
22 | QVQLVESGGGLVQAGGILRLSCAASGSTFRLNAMVWYRQEPGKERELVASIRWSVGITYYADSVKGRFTISLDNSKNTFYLQMNSLKPEDTAVYYCANGDTNWRYYYWGQGTQVTVSS | high polyreactivity

Row | Sequence | polyreactivity (PSR sort gate)
23 | QVQLVESGGGLVQAGGSLRLSCAASGSIFWNNAMGWYIQAPGKEREWVAGISSAGSTNYADSVKGRFTISRDNAKNTVYLQMNSLKPEDTAVYYCAASYFRDYVWLRSNVRYYYWGQGTQVTVSS | low polyreactivity
24 | QVQIVESGGGLVQAGGSLRLICAASGIIFEGYAMGWYRQAPGKERELVAAISQSGGSTRYADSVKGRFTISRDNATNTVYLQMNSLKPEDTAVYYFAKEVWNWGPYYYWGQGTQVTVSS | low polyreactivity
25 | QVQLVESGGGLVQAGGSLRLSCAASGLIFYYYALAWYRQAPGKERELVAAITWTAGSTSYADSVKGRFTISRDNAKNTVYLQMNRLKPEDTAVYYCAADYRHDTFSNEYDYWGQGTQVTVSS | low polyreactivity
26 | QVQLVESGGVLVQAGGSLRLSCAASGRIFSNYAMGWYRQAPGKEWELVATIRKGGGSTYYADSVKGRFTISRDNAKNTVYLQMNSLKPEDTAVYYCAADGSLQTRRFDYWGQGTQVTVSS | high polyreactivity
27 | QVQLVESGGGLVQAGGSLRLSCAASGSIFIYYAMGWYRQAPGKQRELVAGINFNGGSTYYADSVKGRFTISRDNAMYTVYVQMNSLKPEDTAVYYCAADELWWTYWDFVTNWYQRDYWGQGTQVTVSS | low polyreactivity
28 | QVQLVESGGGLVQAGGSLRLSCAASGFTFYQNAMGWYRQAPGKVRELVAAIDRRGGRTYNADSVKGRFTISRDNAKKTVYLQMNSLKPEDTAVYYCNKEKYYTGYDYWGQGTQVTVSS | high polyreactivity
29 | QVQLVESGGGLVEAGGSLRLSCAASGIIFVSYDMGWYRQAPGKERELVAAINRGGRTYYADSVKGRFTISRDNAKNTVYLQMISLKPEDTAVYYCAAQFHFRPFSWTYDYWGQGTQVSVSS | high polyreactivity
30 | QVQLVESGGGLVQAGGSLRLSCAASGFIFYYYAMGWYRQAPGKERELVAGITATGGSTYYADSVKGRFTISRDNAKNTVYLQMNSLKPEDTAVYYCARGPSGTPNGNTPYGDNRYNSWGQGTQVTVSS | low polyreactivity
31 | QVQHVESGGGLVQAGGSLRLSCAASGSIINNYAMGWYRQPPGKERELVADSTYYADSVKGRFTISRDNAKNTVYLQMNSLKPEVTAVYYCAPDDGGGDPEFYWGQGSQVTVSS | high polyreactivity
32 | QVQLVESGGGLVQAGGSLRLSCAASGSTLYSYAMGWYRQAPGKERELVAAISIGGRTYYADSVKGRFTISRDNAKNTVYLQMNSLKPEDTAVYYCNKYYGPRTYLSAQGRSYGYWGQGTQVTVSS | high polyreactivity
33 | QVHLVESGGGLVQAGGSLRLSCAASGSTFVHYAMGWYRQAPGKERELVADITTGDITNYADSVKGRFTISRDNAKNTVYLQMNSLKQEDTAVYSCNARTRYITSLHQYSLDYWGQGSQVTVSS | low polyreactivity
34 | QDQLVESGGGLVQAGGSLRLTCAASGRTFTHYAMGWYRQAPVKERELVAAISRSGGTTYYADSVKGRFTISLDNAKNTVYLQMNSRKPEDTAVYYCAARWWYRYNYDYWGQGTHVTVSS | high polyreactivity
35 | QVQLVESGGGLVQAGGSLRLSCAASGRTFSSYAMGGYRKAPGKERELVAAISKRGVRTSYADSVKGRFTISRDNAKNTVYLQMNRLKPEDTAVYYCNATLGRTTAVFKYYWGQGTQVTVSS | high polyreactivity
36 | QVQLVESGGGLVQAGGSLRLSCAASGSTLAIYAMGWYRQAPGKERELVAAISGGGSTYADSVKGRFTISRDNAKNTVYLQMNSLKPEETAVYYCNADGWGDRFWSNFRFDYWGQGTQVTVSS | low polyreactivity
37 | QVQLVESGGCLVQAGGSIRLSCAAYGSNFDNAMGWSRPATGKERELGAAITSGGITNYADSVKGRFTISRDNAKNTVYLQMNSLKPEDTAVYYCNTLSPTQTKFDYWGQGTQVTVTS | low polyreactivity
38 | QVQLVESGGGLVQAGGSLRLSCAASGSTFVQYAKGWSRQAPGKERELVATISKSGGDTYADSVKGRFTISRDNAKNTVYLQMNSLKPEDTAVYYCAAGYTWVSHRYRYAYNYWGQGTQVTVSS | low polyreactivity
39 | QVQLVESGGGLVQAGGSLRLSCAASGRIFSLYAMGWYRQAPGKERELVAAITWSSGSTYYADSVKGRFTISRDNAKNTVYLQMNSLKPEDTAVYYCAARVFTLLGYSYEYWGQGTQVTVSS | low polyreactivity
40 | QVQLVESGGGLVQAGGSLRLSCAPSGLIFKKYTMGGYRQSPGKERELVASISKSGGSTYYADSVKGRFTFSRDNAKNTYYLQMNCLKPEDTAVYYCNRVSHYIRFDYWVQGTQVTVSS | low polyreactivity
41 | QVQIVESGGGLVQAGGSLRLSCAASGRTLRYYSMGWYRQAPGKERELVAAISGSGGRTYYADSVKGRFTISRDNAKNTVYLQMNSLKPVDTAVYYCAKRYYRTAGDMDYWGLGTQVTVSS | high polyreactivity
42 | QVHLVESGGGIVQAGGSLRLSCAASGFTFTQYGMGWYRQAPGKEREFVATIRFSGDNTYYADSVKGRFTISRDNAKNTVYLQMNSLNPEDTAVYYCNADNRAFFVYPVSKRYDYWGQGTQVTVSS | low polyreactivity
43 | QVQLVESGGGLVQAGGSLRLRCAASGSIFYFYAMGWYRQAPGQEREFVAAITRSGGRTYYADSVKGRFTISRDNAKNTVYLQMNSLKPEDTAVYYCDAVPYDKRKGDYWGQGTQVTVSS | high polyreactivity
